Reference: patent US12139542B2, “Inhibitors of aortic carboxypeptidase-like protein (ACLP)” (TRUSTEES OF BOSTON UNIVERSITY, priority 2014, dated 2024)
Blank lines part the entries; values can stand above or below the molecule they belong to.

Tests used:
TGFβ = assay: ACLP interaction with TGFβ (cell-free binding assay; latent TGFβ activation; data not shown)
[1] = test system: IMR90 human lung fibroblast cells; assay: SMA and collagen I protein expression in IMR90 fibroblasts treated with recombinant ACLP proteins (Western blot); format: cell-based; conditions: IMR90, low serum media, 3.75 μg/ml (~30 nM) protein, 48 h, vs control cells
Protocol: Cell Treatments. IMR90 human lung fibroblasts (ATCC) and AD293 cells (Stratagene) were grown in DMEM supplemented with 10% FBS and 1% penicillin/streptomycin and incubated in a 5% CO2 atmosphere at 37° C. Mink lung epithelial cells stably transfected with the plasminogen activator inhibitor 1 (PAI-1) reporter construct driving luciferase expression (MLEC-TGFβ) (2) were grown in DMEM supplemented with 10% FBS and 1% penicillin/streptomycin, maintained in 250 μg/ml G418, and incubated in a 5% CO2 atmosphere at 37° C.
(§1) IMR90 cells and MLEC-TGFβ cells were generally treated for 30 min, 24 h, or 48 h in low serum media containing 0.5% FBS and 1% penicillin/streptomycin and incubated in a 5% CO2 atmosphere at 37° C. Cells were treated with 3.75 μg/ml (approximately 30 nM) rACLP (full length, Tsp, or C-terminal) or 1 nM TGFβ (R&D) (as a positive control), except where indicated. Cells treated for 30 min were serum starved in low serum media overnight preceding treatment.
Recombinant ACLP induces myofibroblast gene and protein expression. To further define the role of ACLP in the fibroblast to myofibroblast differentiation process, IMR90 human lung fibroblast cells were treated with rACLP. […] IMR90 cells were grown in media containing 3.75 μg/ml (30 nM) rACLP or 1 nM TGFβ as a positive control (FIG. 2A). […] These findings indicate that ACLP promotes the fibroblast to myofibroblast differentiation because it stimulates expression of SMA and collagen 1(3).
The N-terminal domain of ACLP promotes myofibroblast marker protein expression. Because the inventors discovered that the N-terminal Tsp motifs of ACLP (e.g. the PFD) is the domain responsible for promoting TGFβ signaling, the inventors next assessed which domain of ACLP is responsible for increased SMA and collagen I expression in lung myofibroblasts. IMR90 lung fibroblasts were treated in low serum media containing equal molar amounts of full-length protein, the pro-fibrotic domain (PFD) of ACLP, and C-terminal ACLP (˜30 nM) for 48 h (FIG. 7).

[2] = test system: Smad3 phosphorylation (canonical TGFβ signaling); assay: Smad3 phosphorylation in serum starved IMR90 fibroblasts (Western blot); format: cell-based, human; conditions: for Smad3 phosphorylation: serum starved IMR90, ~30 nM protein, 30 min, low serum media
Protocol: as §1
rACLP stimulates canonical TGFβ signaling (Published Tumelty et al JBC 2014). Because ACLP increases TGFβ signaling in a reporter assay, the role of ACLP in canonical TGFβ signaling was investigated in detail. In pulmonary fibroblasts, TGFβ promotes the phosphorylation of Smad3 which then binds to Smad4 and translocates into the nucleus to promote transcription of myofibroblast marker genes (4,5). Therefore, the effects of ACLP on Smad3 phosphorylation were measured. Serum starved IMR90 cells were treated with rACLP for 15, 30, 45, or 60 min, or 24 h (FIG. 3) (3).
Serum starved IMR90 human lung fibroblasts were treated with equivalent molar amounts (˜30 nM) of purified full-length, Tsp repeat domain, or C-terminal protein for 30 min in low serum media (FIG. 6).

[3] = test system: Normal murine mammary gland epithelial cells (NMuMg); assay: EMT marker qPCR in NMuMg cells treated with rACLP; format: cell-based, mouse
Protocol: Normal murine mammary gland epithelial cells (NMuMg) were treated with rACLP (30 nM) or TGFβ (1 nM) and RNA was analyzed by qPCR after 48 hours.

TGFβ Receptor II (TβRII) = biological target: T1, TGFβ Receptor II (TβRII) (Mus musculus, UniProt Q62312); assay: ACLP binding assay: biotinylated rACLP on streptavidin plate incubated with TβRII Fc; conditions: immobilized rACLP vs control-coated wells, p<0.05
T1 construct: contains the extracellular domain of mouse TβRII fused to the Fc domain of human IgG; purchased R&D
T1 sequence (Q62312 24-166 limits assumed): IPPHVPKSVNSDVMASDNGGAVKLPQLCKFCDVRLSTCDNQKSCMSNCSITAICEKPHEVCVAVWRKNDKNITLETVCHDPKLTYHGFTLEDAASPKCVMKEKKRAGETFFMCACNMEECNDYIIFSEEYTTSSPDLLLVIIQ
Protocol: ACLP binding assays. To determine if ACLP binds to TGFβ Receptor II (TORII), ACLP was biotinylated using an EZ-Link Sulfo-NHS-LC-Biotin kit (Thermo Scientific 21327) according to manufacturer's instructions. Briefly, rACLP (0.267 nM) was incubated with 20 fold molar excess of biotin for 30 min at room temperature. The protein was then dialyzed back into DPBS overnight. Biotinylated ACLP (1 μg/well) was immobilized on a PIERCE™ Streptavidin coated High-Binding Capacity Plate (Thermo-Scientific PI-15500) overnight at 4° C. in binding buffer made up of PBS with Mg^2+, Ca^2+, 0.1% BSA, and 0.05% Tween 20). The next day, the plates were washed with binding buffer, blocked with the same buffer containing 1% BSA at room temperature for 1 h, followed by incubation with increasing amounts of TβRII Fc (0, 10, 100, 1000 ng). Binding was detected with Human-IgG-HRP (GE Healthcare Life Sciences) followed by incubation with 3,3′,5,5′-Tetramethylbenzidine (TMB, eBioscience). The reaction was quenched with 2 M H2SO4 and absorbance at 450 nm was measured on the BioTek Synergy HT system.
ACLP binds to the TGFβ-receptor II. […] The TβRII Fc chimera contains the extracellular domain of mouse TβRII fused to the Fc domain of human IgG and has been used as a global inhibitor of TGFβ (6).

[4] = test system: TGFβ signaling activity (PAI-1 promoter luciferase); assay: MLEC-TGFβ activity assay (PAI-1 promoter luciferase reporter); format: cell-based, mink; conditions: MLEC-TGFβ cells, treated overnight in low serum media
Protocol: Cell Treatments. IMR90 human lung fibroblasts (ATCC) and AD293 cells (Stratagene) were grown in DMEM supplemented with 10% FBS and 1% penicillin/streptomycin and incubated in a 5% CO2 atmosphere at 37° C. Mink lung epithelial cells stably transfected with the plasminogen activator inhibitor 1 (PAI-1) reporter construct driving luciferase expression (MLEC-TGFβ) (2) were grown in DMEM supplemented with 10% FBS and 1% penicillin/streptomycin, maintained in 250 μg/ml G418, and incubated in a 5% CO2 atmosphere at 37° C. IMR90 cells and MLEC-TGFβ cells were generally treated for 30 min, 24 h, or 48 h in low serum media containing 0.5% FBS and 1% penicillin/streptomycin and incubated in a 5% CO2 atmosphere at 37° C. Cells were treated with 3.75 μg/ml (approximately 30 nM) rACLP (full length, Tsp, or C-terminal) or 1 nM TGFβ (R&D) (as a positive control), except where indicated. Cells treated for 30 min were serum starved in low serum media overnight preceding treatment. MLEC-TGFβ activity assay. To measure TGFβ signaling activity, 1×10^4 MLEC-TGFβ cells/well were plated on white 96-well cell culture treated plates and allowed to adhere overnight. […] Luciferase activity was measured on an auto-injecting BioTek Synergy HT plate reader using 50 μl of luciferase assay substrate (Promega).

binding to the TβRII Fc chimera (absorbance at 450 nm) (TGFβ Receptor II (TβRII)): significantly more binding
B1: rACLP: recombinant full length mouse ACLP (amino acids 26-1128), BM40 signal sequence, C-terminal myc-His tag, from AD293 cells (protein)
chain: QTVLTDDEIEEFLEGFLSELETQSPPREDDVEVQPLPEPTQRPRKSKAGGKQRADVEVPPEKNKDKEKKGKKDKGPKATKPLEGSTRPTKKPKEKPPKATKKPKEKPPKATKKPKEKPPKATKKPKEKPPKATKRPSAGKKFSTVAPLETLDRLLPSPSNPSAQELPQKRDTPFPNAWQGQGEETQVEAKQPRPEPEEETEMPTLDYNDQIEKEDYEDFEYIRRQKQPRPTPSRRRLWPERPEEKTEEPEERKEVEPPLKPLLPPDYGDSYVIPNYDDLDYYFPHPPPQKPDVGQEVDEEKEEMKKPKKEGSSPKEDTEDKWTVEKNKDHKGPRKGEELEEEWAPVEKIKCPPIGMESHRIEDNQIRASSMLRHGLGAQRGRLNMQAGANEDDYYDGAWCAEDESQTQWIEVDTRRTTRFTGVITQGRDSSIHDDFVTTFFVGFSNDSQTWVMYTNGYEEMTFYGNVDKDTPVLSELPEPVVARFIRIYPLTWNGSLCMRLEVLGCPVTPVYSYYAQNEVVTTDSLDFRHHSYKDMRQLMKAVNEECPTITRTYSLGKSSRGLKIYAMEISDNPGDHELGEPEFRYTAGIHGNEVLGRELLLLLMQYLCQEYRDGNPRVRNLVQDTRIHLVPSLNPDGYEVAAQMGSEFGNWALGLWTEEGFDIFEDFPDLNSVLWAAEEKKWVPYRVPNNNLPIPERYLSPDATVSTEVRAIISWMEKNPFVLGANLNGGERLVSYPYDMARTPSQEQLLAEALAAARGEDDDGVSEAQETPDHAIFRWLAISFASAHLTMTEPYRGGCQAQDYTSGMGIVNGAKWNPRSGTFNDFSYLHTNCLELSVYLGCDKFPHESELPREWENNKEALLTFMEQVHRGIKGVVTDEQGIPIANATISVSGINHGVKTASGGDYWRILNPGEYRVTAHAEGYTSSAKICNVDYDIGATQCNFILARSNWKRIREILAMNGNRPILRVDPSRPMTPQQRRMQQRRLQYRLRMREQMRLRRLNSTAGPATSPTPALMPPPSPTPAITLRPWEVLPTTTAGWEESETETYTEVVTEFETEYGTDLEVEEIEEEEEEEEEEMDTGLTFPLTTVETYTVNFGDF
modifications: left off: small tags and cut ends
activation of latent TGFβ (TGFβ): did not appear to | direct interaction with TGFβ (TGFβ; cell-free binding assay): did not appear to directly interact | SMA protein expression [1]: induced an increase | collagen protein expression [1]: induced an increase | SMA protein expression ([1]; listed as Full-length ACLP): promoted an increase | collagen protein expression ([1]; listed as Full-length ACLP): promoted an increase | time at which Smad3 phosphorylation was first detected ([2]; serum starved IMR90, 3.75 μg/ml rACLP): 15 min | Smad3 phosphorylation, short-term treatment ([2]; serum starved IMR90, 3.75 μg/ml rACLP, 15-60 min): stimulated Smad3 phosphorylation | Smad3 phosphorylation after 24 h ([2]; serum starved IMR90, 3.75 μg/ml rACLP, 24 h): not detectable | Smad3 phosphorylation [2]: stimulated Smad3 phosphorylation | cellular morphology ([3]; ACLP treated cells, consistent with EMT): change in cellular morphology | epithelial marker occludin (qPCR) ([3]; NMuMg, rACLP 30 nM, 48 hours): decreasing | mesenchymal marker SMA (qPCR) ([3]; NMuMg, rACLP 30 nM, 48 hours): enhanced | mesenchymal marker Snail (qPCR) ([3]; NMuMg, rACLP 30 nM, 48 hours): enhanced | mesenchymal marker fibronectin (qPCR) ([3]; NMuMg, rACLP 30 nM, 48 hours): enhanced

amount that stimulated luciferase activity [4]: > 25 µg/mL
B2: C-terminal ACLP: recombinant C-terminal discoidin and carboxypeptidase domains of mouse ACLP, amino acids 374-1128 (protein)
chain: IKCPPIGMESHRIEDNQIRASSMLRHGLGAQRGRLNMQAGANEDDYYDGAWCAEDESQTQWIEVDTRRTTRFTGVITQGRDSSIHDDFVTTFFVGFSNDSQTWVMYTNGYEEMTFYGNVDKDTPVLSELPEPVVARFIRIYPLTWNGSLCMRLEVLGCPVTPVYSYYAQNEVVTTDSLDFRHHSYKDMRQLMKAVNEECPTITRTYSLGKSSRGLKIYAMEISDNPGDHELGEPEFRYTAGIHGNEVLGRELLLLLMQYLCQEYRDGNPRVRNLVQDTRIHLVPSLNPDGYEVAAQMGSEFGNWALGLWTEEGFDIFEDFPDLNSVLWAAEEKKWVPYRVPNNNLPIPERYLSPDATVSTEVRAIISWMEKNPFVLGANLNGGERLVSYPYDMARTPSQEQLLAEALAAARGEDDDGVSEAQETPDHAIFRWLAISFASAHLTMTEPYRGGCQAQDYTSGMGIVNGAKWNPRSGTFNDFSYLHTNCLELSVYLGCDKFPHESELPREWENNKEALLTFMEQVHRGIKGVVTDEQGIPIANATISVSGINHGVKTASGGDYWRILNPGEYRVTAHAEGYTSSAKICNVDYDIGATQCNFILARSNWKRIREILAMNGNRPILRVDPSRPMTPQQRRMQQRRLQYRLRMREQMRLRRLNSTAGPATSPTPALMPPPSPTPAITLRPWEVLPTTTAGWEESETETYTEVVTEFETEYGTDLEVEEIEEEEEEEEEEMDTGLTFPLTTVETYTVNFGDF
modifications: left off: small tags and cut ends
Smad3 phosphorylation [2]: did not
